Data from the Immune Epitope Database (IEDB).
Blank lines part the entries; values can stand above or below the sequence they belong to.

Key:
HLA-A*02:01 [1] = assay: IEDB peptide-MHC binding, cellular MHC/competitive/fluorescence; ≥ and ≤ were set here for values at or beyond the usual limits of such assays; conditions: source organism: Homo sapiens
HLA-A*01:01 [2] = assay: IEDB peptide-MHC binding, purified MHC/direct/fluorescence; filed as Kd, often an IC50 or EC50 that approximates it; ≥ and ≤ were set here for values at or beyond the usual limits of such assays; conditions: source organism: Mycobacterium tuberculosis
HLA-A*02:01 [3] = assay: as above; conditions: source organism: Mycobacterium tuberculosis
HLA-A*11:01 [4] = assay: as above; conditions: source organism: Mycobacterium tuberculosis
HLA-A*26:01 [5] = assay: as above; conditions: source organism: Mycobacterium tuberculosis str. Haarlem
HLA-A*31:01 = assay: as above; conditions: source organism: Mycobacterium tuberculosis
HLA-A*68:02 [6] = assay: as above; conditions: source organism: Mycobacterium tuberculosis
HLA-A*69:01 [7] = assay: as above; conditions: source organism: Mycobacterium tuberculosis
HLA-B*07:02 = assay: as above; conditions: source organism: Mycobacterium tuberculosis
HLA-B*15:01 = assay: as above
HLA-B*18:01 [8] = assay: as above; conditions: source organism: Mycobacterium tuberculosis
HLA-B*27:05 = assay: as above; conditions: source organism: Mycobacterium tuberculosis
HLA-B*40:01 [9] = assay: as above; conditions: source organism: Mycobacterium tuberculosis
HLA-B*46:01 [10] = assay: as above; conditions: source organism: Mycobacterium tuberculosis
HLA-B*48:01 = assay: as above; conditions: source organism: Mycobacterium tuberculosis
HLA-B*57:01 [11] = assay: as above; conditions: source organism: Mycobacterium tuberculosis
HLA-B*58:01 = assay: as above
HLA-A*02:06 = assay: IEDB peptide-MHC binding, purified MHC/competitive/fluorescence; filed as Kd, often an IC50 or EC50 that approximates it; ≥ and ≤ were set here for values at or beyond the usual limits of such assays; conditions: source organism: Mycolicibacterium gilvum PYR-GCK
HLA-A*26:03 = assay: as above; conditions: source organism: Mycolicibacterium gilvum PYR-GCK
HLA-B*15:17 = assay: as above
HLA-B*35:01 = assay: as above; conditions: source organism: Mycolicibacterium gilvum PYR-GCK
HLA-B*53:01 = assay: IEDB peptide-MHC binding, purified MHC/competitive/fluorescence; ≥ and ≤ were set here for values at or beyond the usual limits of such assays; conditions: source organism: Human herpesvirus 4 type 2
HLA-A*11:01 [12] = assay: IEDB peptide-MHC binding, purified MHC/competitive/fluorescence; filed as Kd, often an IC50 or EC50 that approximates it; ≥ and ≤ were set here for values at or beyond the usual limits of such assays; conditions: source organism: human gammaherpesvirus 4
HLA-A*24:02 = assay: IEDB peptide-MHC binding, purified MHC/competitive/radioactivity; ≥ and ≤ were set here for values at or beyond the usual limits of such assays; conditions: source organism: Homo sapiens
HLA-B*40:01 [13] = assay: IEDB peptide-MHC binding, purified MHC/competitive/fluorescence; filed as Kd, often an IC50 or EC50 that approximates it; ≥ and ≤ were set here for values at or beyond the usual limits of such assays
HLA-A*02:01 [14] = assay: as above; conditions: source organism: Burkholderia pseudomallei 668
HLA-A*02:11 = assay: as above; conditions: source organism: Burkholderia pseudomallei 668
HLA-A*03:01 = assay: as above; conditions: source organism: Burkholderia pseudomallei 668
HLA-A*23:01 = assay: as above; conditions: source organism: Burkholderia pseudomallei 668
HLA-A*24:03 = assay: as above; conditions: source organism: Burkholderia pseudomallei 668
HLA-A*26:01 [15] = assay: as above; conditions: source organism: Burkholderia pseudomallei 668
HLA-A*29:02 = assay: as above; conditions: source organism: Burkholderia pseudomallei 668
HLA-A*68:02 [16] = assay: as above; conditions: source organism: Burkholderia pseudomallei 668
HLA-A*69:01 [17] = assay: as above; conditions: source organism: Burkholderia pseudomallei 668
HLA-B*15:42 = assay: as above; conditions: source organism: Burkholderia pseudomallei 668
HLA-B*18:01 [18] = assay: as above; conditions: source organism: Burkholderia pseudomallei 668
HLA-B*27:03 = assay: as above; conditions: source organism: Burkholderia pseudomallei 668
HLA-B*39:01 = assay: as above; conditions: source organism: Burkholderia pseudomallei 668
HLA-B*45:06 = assay: as above; conditions: source organism: Burkholderia pseudomallei 668
HLA-B*46:01 [19] = assay: as above; conditions: source organism: Burkholderia pseudomallei 668
HLA-B*51:01 = assay: as above; conditions: source organism: Burkholderia pseudomallei 668
HLA-B*57:01 [20] = assay: as above
HLA-B*83:01 = assay: as above; conditions: source organism: Burkholderia pseudomallei 668
HLA-A*01:01 [21] = assay: IEDB peptide-MHC binding, purified MHC/competitive/radioactivity; ≥ and ≤ were set here for values at or beyond the usual limits of such assays
HLA-A*02:01 [22] = assay: as above; conditions: source organism: Homo sapiens
HLA-B*44:02 = assay: IEDB peptide-MHC binding, purified MHC/competitive/fluorescence; filed as Kd, often an IC50 or EC50 that approximates it; ≥ and ≤ were set here for values at or beyond the usual limits of such assays; conditions: source organism: Escherichia coli O139:H28 str. E24377A
[23] = source organism: Mycobacterium tuberculosis
[24] = source organism: Burkholderia pseudomallei 668
[25] = source organism: Escherichia coli
[26] = source organism: Escherichia coli O139:H28 str. E24377A

Sequence: ALLDKLYAL
IC50 (HLA-A*02:01 [1]): 1180 nM

Sequence: ALYLLDGLR
Kd (HLA-A*01:01 [2]): ≥ 20000 nM
Kd (HLA-A*02:01 [3]): ≥ 20000 nM
Kd (HLA-A*11:01 [4]): 7370 nM
Kd (HLA-A*26:01 [5]): ≥ 20000 nM
Kd (HLA-A*31:01): 106 nM
Kd (HLA-A*68:02 [6]): ≥ 20000 nM
Kd (HLA-A*69:01 [7]): ≥ 20000 nM
Kd (HLA-B*07:02): ≥ 20000 nM
Kd (HLA-B*15:01; [23]): ≥ 20000 nM
Kd (HLA-B*18:01 [8]): ≥ 20000 nM
Kd (HLA-B*27:05): ≥ 20000 nM
Kd (HLA-B*40:01 [9]): ≥ 20000 nM
Kd (HLA-B*46:01 [10]): ≥ 20000 nM
Kd (HLA-B*48:01): ≥ 20000 nM
Kd (HLA-B*57:01 [11]): ≥ 20000 nM
Kd (HLA-B*58:01; [23]): ≥ 20000 nM
Kd (HLA-A*02:06): ≥ 20000 nM
Kd (HLA-A*26:03): 1000 nM
Kd (HLA-B*15:17; source organism: Mycolicibacterium gilvum PYR-GCK): 446 nM
Kd (HLA-B*35:01): 1210 nM

Sequence: FSSQLGLFY
IC50 (HLA-B*53:01): 2970 nM
Kd (HLA-A*11:01 [12]): 947 nM

Sequence: IEDKNLYMF
Kd (HLA-B*40:01 [13]; source organism: Bacillus mycoides KBAB4): 12.7 nM

Sequence: ILFDRLPIA
Kd (HLA-A*02:01 [14]): ≤ 0.1 nM
Kd (HLA-A*02:11): ≤ 0.1 nM
Kd (HLA-A*03:01): ≥ 20000 nM
Kd (HLA-A*23:01): ≥ 20000 nM
Kd (HLA-A*24:03): ≥ 20000 nM
Kd (HLA-A*26:01 [15]): ≥ 20000 nM
Kd (HLA-A*29:02): ≥ 20000 nM
Kd (HLA-A*68:02 [16]): ≥ 20000 nM
Kd (HLA-A*69:01 [17]): ≥ 20000 nM
Kd (HLA-B*15:17; [24]): ≥ 20000 nM
Kd (HLA-B*15:42): 970 nM
Kd (HLA-B*18:01 [18]): ≥ 20000 nM
Kd (HLA-B*27:03): ≥ 20000 nM
Kd (HLA-B*39:01): ≥ 20000 nM
Kd (HLA-B*45:06): ≥ 5000 nM
Kd (HLA-B*46:01 [19]): ≥ 20000 nM
Kd (HLA-B*51:01): ≥ 20000 nM
Kd (HLA-B*57:01 [20]; [24]): ≥ 20000 nM
Kd (HLA-B*83:01): ≥ 5000 nM

Sequence: KSAIVTLTY
IC50 (HLA-A*01:01 [21]; source organism: Human papillomavirus 16): 11 nM

Sequence: YGDDVIFSY
IC50 (HLA-A*01:01 [21]; source organism: Rhinovirus A): 200 nM

Continued, values first:

IC50 (HLA-A*24:02): 153 nM
Sequence: FYDPMFKYHL

IC50 (HLA-A*24:02): 522 nM
Sequence: IFSKASEYL

IC50 (HLA-A*02:01 [22]): 333 nM
Sequence: LLAVGATKV

IC50 (HLA-A*02:01 [1]): 560 nM
Sequence: LLDRFLATV

IC50 (HLA-A*02:01 [22]): 250 nM
Sequence: RLDCWRGGQV

Kd (HLA-B*40:01 [13]; source organism: Escherichia coli O157:H7 str. EDL933): 96 nM
Sequence: WEKAWPAVF

Kd (HLA-B*15:01; [25]): 93.4 nM
Kd (HLA-B*58:01; [25]): 52.1 nM
Kd (HLA-B*15:17; [26]): 5.2 nM
Kd (HLA-B*44:02): ≥ 20000 nM
Kd (HLA-B*57:01 [20]; [26]): 108 nM
Sequence: WSILRQRCW
